Data on ten molecules can be found in US20230265187A1 (published 2023).

Assay [1] has as its target T1, human TIGIT on Jurkat cells (TIGIT/NFAT reporter Jurkat cells, BPS Bioscience #60538); Promega TIGIT Effector … (human, UniProt Q495A1 22-244).
T1 sequence (looked up): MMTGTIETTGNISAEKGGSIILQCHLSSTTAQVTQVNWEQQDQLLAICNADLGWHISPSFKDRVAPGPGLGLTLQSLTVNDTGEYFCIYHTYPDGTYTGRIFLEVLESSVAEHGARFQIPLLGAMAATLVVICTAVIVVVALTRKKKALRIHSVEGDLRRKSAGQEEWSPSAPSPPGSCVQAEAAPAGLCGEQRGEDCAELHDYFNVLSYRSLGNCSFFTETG
Put plainly: cell-based or functional assay.

For assay [2], the target named is T2, his-tagged human TIGIT (Acro Biosystems #TIT-H52H3) (human, UniProt Q495A1 22-141).
T2 construct: Bought protein; also called His-tagged-TIGIT (human); not shown: his tag
T2 sequence (looked up): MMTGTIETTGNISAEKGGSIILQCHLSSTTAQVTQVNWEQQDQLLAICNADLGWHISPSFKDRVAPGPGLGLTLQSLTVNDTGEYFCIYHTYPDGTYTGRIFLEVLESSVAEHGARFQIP
Put plainly: ELISA, coated His-TIGIT, 1 ug/ml. For orientation: ELISA stands for enzyme-linked immunosorbent assay.

The target of assay [3] is T3, his-tagged murine TIGIT (Acro Biosystems #TIT-M52E6) (murine, UniProt P86176 29-148, limits assumed).
T3 construct: Bought protein; also called mouse his-tagged TIGIT; not shown: his tag
T3 sequence (looked up): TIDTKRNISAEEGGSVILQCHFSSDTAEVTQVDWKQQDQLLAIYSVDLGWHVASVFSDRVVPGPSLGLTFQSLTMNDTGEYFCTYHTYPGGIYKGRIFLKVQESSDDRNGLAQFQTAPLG
Kind of assay: ELISA, coated His-TIGIT, 1 ug/ml.

Assay [4] concerns the target T4, His-tagged cynomolgus monkey TIGIT (Acro Biosystems #TIT-05223) (cynomolgus monkey, UniProt A0A7N9I9V4 89-209).
T4 construct: Bought protein; also called cyno TIGIT; cynomolgus TIGIT; not shown: His tag
Kind of assay: ELISA, coated His-TIGIT, 1 ug/ml.

The target in assay [5] is T1, human TIGIT on Jurkat cells (TIGIT/NFAT …). Put plainly: flow cytometry, TIGIT/NFAT Jurkat cells, 10 ug/ml. (In general: Flow cytometry measures light scatter and fluorescence of single cells or particles in a stream.)
In assay [6] the target is T2, his-tagged human TIGIT (Acro Biosystems …). Put plainly: SPR (Carterra LSA), scFv-Fc captured, His-TIGIT analyte. In a few lines:
(§1)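 Affinity from His-TIGIT analyte injected in 1:2 serial dilution over antibody captured as scFv-Fc via amine-coupled goat anti-human Fc on an HC30M surface. Supernatants diluted 30-fold in HBSTE; kinetic fitting.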

Assay [7] addresses T4, His-tagged cynomolgus monkey TIGIT …. Described as above. In short, it runs like this: as §1
The target is the same in assay [8]. Put plainly: SPR (Carterra LSA), scFv-Fc captured, His-TIGIT analyte; repeat. The method, then: (§2) Binding affinities of anti-TIGIT antibodies to human, cyno, and murine TIGIT were measured by Surface Plasmon Resonance (SPR) on a Carterra LSA instrument. Goat anti-human Fc antibody was amine coupled to a HC30M chip. ScFv-Fc supernatants were diluted 30-fold with HBSTE and were captured by the anti-human Fc coupled HC30M chip. A 1:2 dilution series of his-tagged human TIGIT, starting at 400 nM, was injected onto the chip for binding. A dilution series was also carried out for cyno TIGIT and murine TIGIT. Data were analyzed using the Carterra™ Kinetics software.

Assay [9] deals with T3, his-tagged murine TIGIT (Acro …). Kind of assay: SPR (Carterra LSA), scFv-Fc captured, His-TIGIT analyte. In short, it runs like this: as §1
Assay [10] has the same target. Kind of assay: SPR (Carterra LSA), scFv-Fc captured, His-TIGIT analyte; repeat. The procedure: as §2

T4 sequence (A0A7N9I9V4 entry or part of it): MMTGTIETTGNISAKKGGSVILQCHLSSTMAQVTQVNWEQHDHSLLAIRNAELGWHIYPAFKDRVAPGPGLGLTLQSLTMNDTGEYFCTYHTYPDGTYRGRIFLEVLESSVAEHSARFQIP

B1: 43586p1.1.H8 (scFv, V domains shown)
VH: EVQLLESGGGLVQPGGSLRLSCAASGFTFIDFWMSWVRQAPGKGLEWVSAISWIGDTYYYADSVKGRFTVSRDNSKNTVYLQMNSLRAEDTAVYYCAKHWTVYQYGMDVWGQGTTVTVSS
VL: QSVLTQPPSASGTPGQRVIISCSGSTSDIETKYVSWYQQLPGTAPKLLIYGNHQRPSGVPDRFSGSKSGTSASLAISGLQSEDEADYYCTAWDNTLKSWVFGGGTKLTVL
Take B1: the “max. signal (% of 22G2)” value in assay [1] was 124 % of 22G2. In addition, the “Elisa OD450” value came out at 1.93 OD450 in assay [2], 0.048 OD450 in [3] and 1.25 OD450 in [4]. The molecule also returned an MFI in assay [5] of 9170 MFI. In addition, the figures for the Kd in assay [6], in assay [7] and in assay [8] were 0.292 nM, 31.6 nM and 16 nM, respectively.

B2: 43586p1.2.F6 (scFv, V domains shown)
VH: EVQLLESGEGLVQPGGSLRLSCAASGFTFTSYLMSWVRQAPGKGLEWVSTITWDGDRTYYADSVKGRFTISRDNSKNTLYLQMNSLRVGDTAVYYCAKHWTVFQYGMDVWGQGTTVTVSS
VL: QSVLTQPASASGTPGQRVTISCSGTISNIETKYVSWYQQLPGTAPKLLIYGNHQRPSGVPDRFSGSKSGTSASLAISGLQSEDEADYYCASWENDLKSWVFGGGTKLTVL
notes: Tested as scFv-Fc supernatant; also called 43586p1.2.F06
Take B2: the Kd is 0.223 nM in [6], 38.1 nM in assay [7] and 4.6 nM in assay [8].

B3: 43586p2.G01 (scFv, V domains shown)
VH: EVQLLESGGGLVQPGGSLRLSCAASGFTVSSNWMSWVRQAPGKGLEWVSTTSSSSWNNYTYYADSVKGRFTISRDNSKNTLYLQMNSLRAEDTAVYYCAKGSYGMDVWGQGTTVTVSS
VL: QSVLTQPPSASGTPGQRVTISCSGSNSNIGAKYLYWYQQLPGTAPKLLIYLNDRRPSGVPDRFSGSKSGTSASLAISGLQSEDEADYYCAFWDDHLKGWVFGGGTKLTVL
Regarding B3, the “max. signal (% of 22G2)” value in assay [1] was 110 % of 22G2. In addition, the results for the “Elisa OD450” value in assay [2], in assay [3] and in assay [4] were 2.03 OD450, 1.95 OD450 and 1.15 OD450, respectively. The molecule also yielded an MFI in assay [5] of 9720 MFI. The Kd in [6] was 2.69 nM; in assay [9], 1.65 nM; in assay [7] it was 339 nM.

B4: 43586p2.H02 (scFv, V domains shown)
VH: EVQLLESGGGLVQPGGSLRLSCATSGFTVSDHYVSWVRQAPGKGLEWVSTSSSTNWNDGRTYYADSVKGRFTISRDNSENTLYLQMNSLRAEDTAVYYCAKGSYGMDVWGQGTTVTVSS
VL: QSVLTQPPSASGTPGQRVTISCSASNSYIGTKYFYWYQQLPGTAPKLLIYLDSQRPSGVPDRFSGSKSGTSVSLAISGLQSEDEADYYCAFWDDHLHGWVFGGGTKLTVL
Regarding B4, the “max. signal (% of 22G2)” value in assay [1] is 80 % of 22G2. Further, the “Elisa OD450” value in assay [2] worked out at 2 OD450; in assay [3], 1.93 OD450; in [4], 1.09 OD450. Further, the MFI in [5] was determined as 9130 MFI. Besides, the Kd in assay [6] was 2.53 nM; in [9] it was 3.94 nM; in assay [7], 334 nM.

B5: 43586p2.A03 (scFv, V domains shown)
VH: EVQLLESGGGLVQPGGSLRLSCAASGFTFTSYAMSWVRQAPGKGLEWVAGISYIGRNEYYADSVKGRLTISRDNSKNTLYLQMNNLRAEDTAIYYCAKHLTGGTTDYYYYGMDVWGQGTTVTVSS
VL: QSVLTQPPSASGTPGQRVTISCSGSTSNIGTSRYVHWYQQLPGTAPKLLIYFDSQRPSGVPDRFSASKSGTSASLAISGLQSEDEADYYCATWDDSLSAWVFGGGTKLTVL
Take B5: the “max. signal (% of 22G2)” value in [1] is 109 % of 22G2. Moreover, the “Elisa OD450” value in assay [2] turned out to be 1.96 OD450; in assay [3], 0.046 OD450; in assay [4], 1.41 OD450. This molecule registered an MFI in [5] of 9070 MFI. Further, the dissociation constant Kd in [6] was 0.386 nM; in [7], 63 nM; in [8] it was 33 nM.

B6: 43645p1.D8 (scFv, V domains shown)
VH: EVQLLESGGDLVQSGGSLRLSCAASGFSFWGYAMTWVRQAPGKGLEWVSTIAGNSYAYYADSVKGRFTISRDNSKNMVYLQMNGLRAEDTAVYYCAKDRSFYNYYDIDVWGQGTTVTVSS
VL: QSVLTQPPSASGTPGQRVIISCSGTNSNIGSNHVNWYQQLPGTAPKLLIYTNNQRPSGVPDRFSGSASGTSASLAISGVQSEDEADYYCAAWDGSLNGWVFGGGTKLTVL
Turning to B6, the “max. signal (% of 22G2)” value in assay [1] is 108 % of 22G2. Moreover, the “Elisa OD450” value was found to be 1.77 OD450 in assay [2], 0.053 OD450 in assay [3] and 1.36 OD450 in [4]. The MFI in assay [5] was 10300 MFI. The Kd in assay [6] was 0.416 nM; in assay [7] it was 24.5 nM; in [8] it was 1.9 nM.

B7: 43645p1.B2 (scFv, V domains shown)
VH: EVQLLESGGGLVQPGGSLRLSCATSGFTFSSYWMSWVRQAPGKGLEWVSGIHISDSTYYADSVKGRFTISRDNSKNTLYLQMNSLRAEDTAVYYCAKGHTVLQYGMDVWGQGTTVTVSS
VL: QSGLTQPPSASGTPGQRVTISCSGDISNTRNNYVSWYQQLPGTAPKLLIYGNHQRPSGVPDRFSGSKSATSASLAISGLQSEDEADYHCGTWDNTLNAWVFGGGTKLTVL
Take B7: in [1], the “max. signal (% of 22G2)” value is 111 % of 22G2. Besides, the results for the “Elisa OD450” value in [2], in assay [3] and in assay [4] were 2.42 OD450, 1.85 OD450 and 1.61 OD450, respectively. The MFI in [5] was determined as 8950 MFI. For the same molecule, the Kd was 0.0464 nM in assay [6], 42 nM in [10] and 0.93 nM in assay [8].

B8: 43645p1.E3 (scFv, V domains shown)
VH: EVQLLESGGGLVQPGGSLRLSCAASGFTFSSYAMSWVRQAPGKGLEWVSAIYFDGSIYDADSVKGRFTISRDNSKNTLYLQMNSLRDEDTAVYYCAKSHTVLQYGMDVWGQGTTVTVSS
VL: QSVLTQPPSASGTPGQRVTISCSGVTSNIRNSYVSWYQQLPGTAPKLLIYGNDQRPSGVPDRFSGSKSGTSASLAISGLQSEDEADYYCGTWDNTLNAWVFGGGTKLTVL
B8: the “max. signal (% of 22G2)” value in [1] is 103 % of 22G2. In addition, the “Elisa OD450” value worked out at 1.99 OD450 in assay [2], 0.947 OD450 in assay [3] and 1.53 OD450 in assay [4]. Further, the MFI in assay [5] turned out to be 9950 MFI. Further, the Kd in assay [6] stood at 0.0267 nM; in assay [7], 6.96 nM; in assay [8], 5.5 nM.

B9: 43645p1.D3 (scFv, V domains shown)
VH: EVQLLESGGGLVQPGGSLRLSCAASGFTFSSYWMSWVRQAPGKGLEWVSGIHISDSTYYADSVKGRFTISRDNSKNTLYLQMNSLRAEDTAVYYCAKGHTVLQYGMDVWGQGTTVTVSS
VL: QSGLTQPPSASGTPGQRVTISCSGDISNTRNNYVSWYQQLPGTAPKLLIYGNHQRPSGVPDRFSGSKSATSASLAISGLQSEDEADYYCGTWDNTLNAWVFGGGTKLTVL
Consider B9, for which the “max. signal (% of 22G2)” value in assay [1] was 115 % of 22G2. Moreover, the “Elisa OD450” value in [2] is 2.13 OD450; in assay [3], 1.9 OD450; in assay [4], 1.74 OD450. The MFI in assay [5] was found to be 9350 MFI. Further, the results for the Kd in [6], in assay [10] and in [8] were 0.0171 nM, 19 nM and 0.32 nM, respectively.

B10: 43645p1.G5 (scFv, V domains shown)
VH: EVQLLESGGGLVQPGGSLRLSCAASGFTFSSYYMSWVRQAPGKGLEWVSAISIFSGDSTYYADSVKGRFTISRDNSKNTLYLQMNSLRAEDTAVYYCAKSHTVLQYGMDVWGQGTTVTVSS
VL: QSVLTQPPSASGTPGQRVTISCSGVTSNIRNYYVSWYQQLPGTAPKLLIYGNDQRPSGVPDRFSGSKSGTSASLAISGLQSEDEADYYCGTWDNTLNAWVFGGGTKLTVL
Turning to B10, in assay [1], the “max. signal (% of 22G2)” value is 99 % of 22G2. The entries for the “Elisa OD450” value in assay [2], in assay [3] and in [4] were 1.94 OD450, 1.01 OD450 and 1.73 OD450, respectively. The molecule further came in with an MFI in assay [5] of 12400 MFI. Besides, the results for the Kd in assay [6] and in assay [8] were 0.0507 nM and 0.368 nM, respectively.

As usually defined, the Kd is the equilibrium constant for the complex coming apart.
